Residue numbers refer to the chain shown, from its start. One block for each binder: values may come before it.
How the values were obtained:
[1] = target: human GLP-1 receptor (human, UniProt P43220 24-463); test: cell-based or functional assay
[2] = target: T1, human beta-Klotho (human, UniProt Q86Z14 1-1044); test: cell-based or functional assay
T1 sequence (looked up): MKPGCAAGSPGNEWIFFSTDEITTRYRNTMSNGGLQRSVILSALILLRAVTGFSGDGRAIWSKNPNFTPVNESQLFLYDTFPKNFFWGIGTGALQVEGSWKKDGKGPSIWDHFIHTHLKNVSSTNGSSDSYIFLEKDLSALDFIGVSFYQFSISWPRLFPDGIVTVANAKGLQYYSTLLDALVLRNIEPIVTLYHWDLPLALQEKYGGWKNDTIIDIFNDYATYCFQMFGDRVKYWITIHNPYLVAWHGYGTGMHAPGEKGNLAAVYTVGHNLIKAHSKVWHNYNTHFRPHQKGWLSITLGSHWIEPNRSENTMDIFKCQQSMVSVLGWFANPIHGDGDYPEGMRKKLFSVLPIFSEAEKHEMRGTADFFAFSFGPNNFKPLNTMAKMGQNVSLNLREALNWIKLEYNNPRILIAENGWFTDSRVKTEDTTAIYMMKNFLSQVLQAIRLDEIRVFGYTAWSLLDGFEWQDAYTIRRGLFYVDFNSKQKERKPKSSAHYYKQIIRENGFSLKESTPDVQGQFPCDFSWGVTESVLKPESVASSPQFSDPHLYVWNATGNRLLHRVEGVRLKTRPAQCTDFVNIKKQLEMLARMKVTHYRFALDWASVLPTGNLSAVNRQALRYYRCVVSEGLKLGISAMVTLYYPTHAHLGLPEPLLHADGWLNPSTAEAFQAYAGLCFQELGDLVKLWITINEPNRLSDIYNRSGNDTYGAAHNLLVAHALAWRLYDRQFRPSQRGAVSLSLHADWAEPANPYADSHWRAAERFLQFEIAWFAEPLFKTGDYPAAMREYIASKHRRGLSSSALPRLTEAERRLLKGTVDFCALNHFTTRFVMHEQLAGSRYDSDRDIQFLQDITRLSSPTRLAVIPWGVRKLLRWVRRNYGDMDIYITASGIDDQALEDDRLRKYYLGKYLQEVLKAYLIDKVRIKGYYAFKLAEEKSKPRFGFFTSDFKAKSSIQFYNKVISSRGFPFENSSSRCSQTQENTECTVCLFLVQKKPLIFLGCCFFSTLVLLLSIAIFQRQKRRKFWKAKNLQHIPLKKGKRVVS

B1: Compound 22 (ligand)
chain: HGEGTFTSDVSSYLEEQAAREFIAWLVRGGGGGGGSGGGGSGGGGSGGGGKHPIPDSSPLLQFGGQVRQRYLYTDDAQQTEAHLEIREDGTVGGAADQSPESLLQLRALRPGVIQILGVRTSRFLCQRPDGALYGSLHFDPEACSFRELLLEDGYNVYQSEAHGLPLHLPGQRSPHRDPAPRGPARFLPLPGLPPALPEPPGILAPQPPDVGSSDPLSLVGGSQGRSPSYK
modifications: Moiety A (HOOC-(CH2)16-CO-gGlu-2XADO) on 51K and 231K of fusion polypeptide
GLP-1 activity (EC50, pM); CRE luciferase reporter [1]: 50.4 pM | FGF21 activity (EC50, nM); p-ERK levels [2]: 7 nM

B4: Compound 39 (ligand)
chain: HGEGTFTSDVSSYLEEQAAREFIAWLVRGGGGGGGSGGGGSGGGGSGGGGSGGGGSGGGGSGGGGSGGGGKHPIPDSSPLLQFGGQVRQRYLYTDDAQQTEAHLEIREDGTVGGAADQSPESLLQLRALRPGVIQILGVRTSRFLCQRPDGALYGSLHFDPEACSFRELLLEDGYNVYQSEAHGLPLHLPGQRSPHRDPAPRGPARFLPLPGLPPALPEPPGILAPQPPDVGSSDPLSLVGKSQGRSPSYES
modifications: Moiety A (HOOC-(CH2)16-CO-gGlu-2XADO) on 71K and 242K of fusion polypeptide
GLP-1 activity (EC50, pM); CRE luciferase reporter [1]: 12.6 pM | FGF21 activity (EC50, nM); p-ERK levels [2]: 4.2 nM

B6: Compound 9 (ligand)
chain: HGEGTFTSDVSSYLEEQAAREFIAWLVRGGGGGGGSGGGGSGGGGSGGGGSHPIPDSSPLLQFGGQVRQRYLYTDDAQQTEAHLEIREDGTVGGAADQSPESLLQLRALRPGVIQILGVRTSRFLCQRPDGALYGSLHFDPEACSFRELLLEDGYNVYQSEAHGLPLHLPGQRSPHRDPAPRGPARFLPLPGLPPALPEPPGILAPQPPDVGSSDPLSLVGGSQGRSPSYKS
modifications: Moiety A (HOOC-(CH2)16-CO-gGlu-2XADO) on 231K of fusion polypeptide
GLP-1 activity (EC50, pM); CRE luciferase reporter [1]: 19.9 pM | FGF21 activity (EC50, nM); p-ERK levels [2]: 4.9 nM

B7: Compound 2 (ligand)
chain: B6 chain with R20K
modifications: Moiety A (HOOC-(CH2)16-CO-gGlu-2XADO) on 20K and 231K of fusion polypeptide
GLP-1 activity (EC50, pM); CRE luciferase reporter [1]: 46.6 pM | FGF21 activity (EC50, nM); p-ERK levels [2]: 5.5 nM

B8: Compound 19 (ligand)
chain: B6 chain with S51K, G222K, K231E
modifications: Moiety A (HOOC-(CH2)16-CO-gGlu-2XADO) on 51K and 222K of fusion polypeptide
GLP-1 activity (EC50, pM); CRE luciferase reporter [1]: 20.3 pM | FGF21 activity (EC50, nM); p-ERK levels [2]: 13.6 nM

B10: Compound 10 (ligand)
chain: B6 chain with G222K, K231E
modifications: Moiety A (HOOC-(CH2)16-CO-gGlu-2XADO) on 222K of fusion polypeptide
GLP-1 activity (EC50, pM); CRE luciferase reporter [1]: 17.6 pM | FGF21 activity (EC50, nM); p-ERK levels [2]: 4.5 nM

B11: Compound 11 (ligand)
chain: B6 chain with G221K, G222P, K231E
modifications: Moiety A (HOOC-(CH2)16-CO-gGlu-2XADO) on 221K of fusion polypeptide
GLP-1 activity (EC50, pM); CRE luciferase reporter [1]: 18.2 pM | FGF21 activity (EC50, nM); p-ERK levels [2]: 3.9 nM

B12: Compound 12 (ligand)
chain: B6 chain with G225K, K231E
modifications: Moiety A (HOOC-(CH2)16-CO-gGlu-2XADO) on 225K of fusion polypeptide
GLP-1 activity (EC50, pM); CRE luciferase reporter [1]: 17 pM | FGF21 activity (EC50, nM); p-ERK levels [2]: 4.1 nM

B15: Compound 21 (ligand)
chain: B6 chain with S51K, G225K, K231E
modifications: Moiety A (HOOC-(CH2)16-CO-gGlu-2XADO) on 51K and 225K of fusion polypeptide
GLP-1 activity (EC50, pM); CRE luciferase reporter [1]: 36.8 pM | FGF21 activity (EC50, nM); p-ERK levels [2]: 17.6 nM

B16: Compound 20 (ligand)
chain: B6 chain with S51K, G221K, G222P, K231E
modifications: Moiety A (HOOC-(CH2)16-CO-gGlu-2XADO) on 51K and 221K of fusion polypeptide
GLP-1 activity (EC50, pM); CRE luciferase reporter [1]: 39.1 pM | FGF21 activity (EC50, nM); p-ERK levels [2]: 10.6 nM

B18: Compound 15 (ligand)
chain: B6 chain with G222P
modifications: Moiety A (HOOC-(CH2)16-CO-gGlu-2XADO) on 231K of fusion polypeptide
GLP-1 activity (EC50, pM); CRE luciferase reporter [1]: 16.8 pM | FGF21 activity (EC50, nM); p-ERK levels [2]: 7.3 nM

B20: Compound 13 (ligand)
chain: HGEGTFTSDVSSYLEEQAAREFIAWLVRGGGGAQPGAQPGAQPGAQPGAQPHPIPDSSPLLQFGGQVRQRYLYTDDAQQTEAHLEIREDGTVGGAADQSPESLLQLRALRPGVIQILGVRTSRFLCQRPDGALYGSLHFDPEACSFRELLLEDGYNVYQSEAHGLPLHLPGQRSPHRDPAPRGPARFLPLPGLPPALPEPPGILAPQPPDVGSSDPLSLVGKSQGRSPSYES
modifications: Moiety A (HOOC-(CH2)16-CO-gGlu-2XADO) on 222K of fusion polypeptide
GLP-1 activity (EC50, pM); CRE luciferase reporter [1]: 19.6 pM | FGF21 activity (EC50, nM); p-ERK levels [2]: 9.1 nM

B22: Compound 14 (ligand)
chain: B20 chain with A33Q, Q34E, A37Q, Q38E, A41Q, Q42E, A45Q, Q46E, A49Q, Q50E
modifications: Moiety A (HOOC-(CH2)16-CO-gGlu-2XADO) on 222K of fusion polypeptide
GLP-1 activity (EC50, pM); CRE luciferase reporter [1]: 33.2 pM | FGF21 activity (EC50, nM); p-ERK levels [2]: 19 nM

Continued, values first:

FGF21 activity (EC50, nM); p-ERK levels [2]: 8 nM
B2: Compound 40 (ligand)
chain: HGEGTFTSDVSSYLEEQAAREFIAWLVRGGGGAQPGAQPGAQPGAQPGAQPGAQPGAQPGAQPGAQPGAQPGAQPGAQPGAQPGAQPGAQPGAQPGAQPGAQPGAQPGAQKHPIPDSSPLLQFGGQVRQRYLYTDDAQQTEAHLEIREDGTVGGAADQSPESLLQLRALRPGVIQILGVRTSRFLCQRPDGALYGSLHFDPEACSFRELLLEDGYNVYQSEAHGLPLHLPGQRSPHRDPAPRGPARFLPLPGLPPALPEPPGILAPQPPDVGSSDPLSLVGKSQGRSPSYES
modifications: Moiety A (HOOC-(CH2)16-CO-gGlu-2XADO) on 111K and 282K of fusion polypeptide

GLP-1 activity (EC50, pM); CRE luciferase reporter [1]: 15.4 pM | FGF21 activity (EC50, nM); p-ERK levels [2]: 8.7 nM
B3: Compound 50 (ligand)
chain: HGEGTFTSDVSSYLEEQAAREFIAWLVRGGGGGGGSGGGGSGGGGSGGGGKHPIPDSSPLLQFGGQVRQRYLYTDDAQQTEAHLEIREDGTVGGAADQSPESLLQLRALRPGVIQILGVRTSRFLCQRPDGALYGSLHFDPEACSFRELLLEDGYNVYQSEAHGLPLHLPGQRSPHRDPAPRGPARFLPLPGLPPALPEPPGILAPQPPDVGSSDPLSLVGGSQGRSPSYESK
modifications: Moiety A (HOOC-(CH2)16-CO-gGlu-2XADO) on 51K and 233K of fusion polypeptide

FGF21 activity (EC50, nM); p-ERK levels [2]: 10.6 nM
B5: Native FGF21 (ligand)
chain: HPIPDSSPLLQFGGQVRQRYLYTDDAQQTEAHLEIREDGTVGGAADQSPESLLQLKALKPGVIQILGVKTSRFLCQRPDGALYGSLHFDPEACSFRELLLEDGYNVYQSEAHGLPLHLPGNKSPHRDPAPRGPARFLPLPGLPPALPEPPGILAPQPPDVGSSDPLSMVGPSQGRSPSYAS

GLP-1 activity (EC50, pM); CRE luciferase reporter [1]: 19 pM | FGF21 activity (EC50, nM); p-ERK levels [2]: 3.4 nM
B9: Compound 54 (ligand)
chain: B6 chain with R20K, S51C, R107K, R110K, R120K, R173K, K231C
modifications: Moiety B (HOOC-(CH2)20-CO-gGlu-2XADO-EDA-CO-CH2) on 51C and 231C of fusion polypeptide

GLP-1 activity (EC50, pM); CRE luciferase reporter [1]: 30.7 pM | FGF21 activity (EC50, nM); p-ERK levels [2]: 4.3 nM
B13: Compound 51 (ligand)
chain: B6 chain with R20K, S51C, R107K, R110K, R120K, R173K, G222C, K231E
modifications: Moiety B (HOOC-(CH2)20-CO-gGlu-2XADO-EDA-CO-CH2) on 51C and 222C of fusion polypeptide

GLP-1 activity (EC50, pM); CRE luciferase reporter [1]: 30.2 pM | FGF21 activity (EC50, nM); p-ERK levels [2]: 2.4 nM
B14: Compound 52 (ligand)
chain: B6 chain with R20K, S51C, R107K, R110K, R120K, R173K, G225C, K231E
modifications: Moiety B (HOOC-(CH2)20-CO-gGlu-2XADO-EDA-CO-CH2) on 51C and 225C of fusion polypeptide

GLP-1 activity (EC50, pM); CRE luciferase reporter [1]: 49.1 pM | FGF21 activity (EC50, nM); p-ERK levels [2]: 1.2 nM
B17: Compound 63 (ligand)
chain: B6 chain with R20K, R28K, S51C, R107K, R110K, R120K, R173K, G222C, K231E
modifications: Moiety B (HOOC-(CH2)20-CO-gGlu-2XADO-EDA-CO-CH2) on 51C and 222C of fusion polypeptide

FGF21 activity (EC50, nM); p-ERK levels [2]: 8.4 nM
B19: Compound 42 (ligand)
chain: HGEGTFTSDVSSYLEEQAAREFIAWLVRGGGGAQPGAQPGAQPGAQPGAQPGAQPGAQPGAQPGAQPGAQKHPIPDSSPLLQFGGQVRQRYLYTDDAQQTEAHLEIREDGTVGGAADQSPESLLQLRALRPGVIQILGVRTSRFLCQRPDGALYGSLHFDPEACSFRELLLEDGYNVYQSEAHGLPLHLPGQRSPHRDPAPRGPARFLPLPGLPPALPEPPGILAPQPPDVGSSDPLSLVGKSQGRSPSYES
modifications: Moiety A (HOOC-(CH2)16-CO-gGlu-2XADO) on 71K and 242K of fusion polypeptide

GLP-1 activity (EC50, pM); CRE luciferase reporter [1]: 14.4 pM | FGF21 activity (EC50, nM); p-ERK levels [2]: 20.4 nM
B21: Compound 48 (ligand)
chain: B20 chain with P51K
modifications: Moiety A (HOOC-(CH2)16-CO-gGlu-2XADO) on 51K and 222K of fusion polypeptide

Source: patent US20220016254A1 (BEIJING QL BIOPHARMACEUTICAL, published 2022)
